Experiments:
Experiment in all cases: pull-down; 500 ng GST-tagged METTL21D with 100 ng His-tagged protein and Glutathione Sepharose 4B beads, 1 hour at 4°C, 50 mM NaCl, 50 mM HEPES-KOH pH 7.6, 0.1% NP-40, 0.5% charcoal-stripped FBS; bound His-tagged proteins detected by anti-6X His Western blot; AdoMet or AdoHcy present in Figure 6E; VCP and ASPSCR1 also added together (more binding)
Conditions in all cases: both partners purified
[1] = biological target: T1, VCP-His R191Q (human, UniProt P55072 1-806, R191Q)
T1 construct: VCP/p97, human, with the IBMPFD- and ALS-linked substitution R191Q; also called VCP mutant R191Q; source: E. coli One Shot BL21 Star (DE3), purified (Ni-NTA Agarose)
T1 sequence (P55072 whole entry R191Q): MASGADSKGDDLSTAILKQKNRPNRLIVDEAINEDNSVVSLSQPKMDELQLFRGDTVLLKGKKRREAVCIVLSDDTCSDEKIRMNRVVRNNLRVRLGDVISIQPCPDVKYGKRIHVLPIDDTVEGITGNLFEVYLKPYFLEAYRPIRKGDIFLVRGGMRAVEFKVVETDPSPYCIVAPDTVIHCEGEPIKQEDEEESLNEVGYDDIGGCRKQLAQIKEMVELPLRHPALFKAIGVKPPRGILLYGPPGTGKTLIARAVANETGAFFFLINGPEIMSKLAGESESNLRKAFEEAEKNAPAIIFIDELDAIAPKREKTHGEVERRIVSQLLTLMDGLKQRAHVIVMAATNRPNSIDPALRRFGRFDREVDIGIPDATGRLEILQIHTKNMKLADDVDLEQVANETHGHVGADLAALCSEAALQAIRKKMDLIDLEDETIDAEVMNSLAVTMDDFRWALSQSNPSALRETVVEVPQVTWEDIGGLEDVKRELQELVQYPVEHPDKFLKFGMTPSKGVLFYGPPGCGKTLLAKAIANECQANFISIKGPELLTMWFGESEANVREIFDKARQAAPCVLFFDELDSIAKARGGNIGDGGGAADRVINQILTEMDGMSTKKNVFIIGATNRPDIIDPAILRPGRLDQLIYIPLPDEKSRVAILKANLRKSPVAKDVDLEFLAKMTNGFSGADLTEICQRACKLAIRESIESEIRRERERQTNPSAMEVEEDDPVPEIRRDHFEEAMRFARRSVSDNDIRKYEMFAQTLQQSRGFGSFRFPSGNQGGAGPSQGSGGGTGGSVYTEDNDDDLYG

[2] = biological target: T2, VCP-His R159G (human, UniProt P55072 1-806, R159G)
T2 construct: VCP/p97, human, with the ALS-linked substitution R159G; also called VCP mutant R159G; source: E. coli One Shot BL21 Star (DE3), purified (Ni-NTA Agarose)
T2 sequence (P55072 whole entry R159G): as the sequence (P55072 whole entry R191Q) above, with R159G, Q191R counted along it

[3] = biological target: T3, ASPSCR1-His (human, UniProt Q9BZE9 1-553)
T3 construct: ASPSCR1/UBXD9, human; also called full-length ASPSCR1; His-tagged ASPSCR1; source: E. coli One Shot BL21 Star (DE3), purified (Ni-NTA Agarose)
T3 sequence (looked up): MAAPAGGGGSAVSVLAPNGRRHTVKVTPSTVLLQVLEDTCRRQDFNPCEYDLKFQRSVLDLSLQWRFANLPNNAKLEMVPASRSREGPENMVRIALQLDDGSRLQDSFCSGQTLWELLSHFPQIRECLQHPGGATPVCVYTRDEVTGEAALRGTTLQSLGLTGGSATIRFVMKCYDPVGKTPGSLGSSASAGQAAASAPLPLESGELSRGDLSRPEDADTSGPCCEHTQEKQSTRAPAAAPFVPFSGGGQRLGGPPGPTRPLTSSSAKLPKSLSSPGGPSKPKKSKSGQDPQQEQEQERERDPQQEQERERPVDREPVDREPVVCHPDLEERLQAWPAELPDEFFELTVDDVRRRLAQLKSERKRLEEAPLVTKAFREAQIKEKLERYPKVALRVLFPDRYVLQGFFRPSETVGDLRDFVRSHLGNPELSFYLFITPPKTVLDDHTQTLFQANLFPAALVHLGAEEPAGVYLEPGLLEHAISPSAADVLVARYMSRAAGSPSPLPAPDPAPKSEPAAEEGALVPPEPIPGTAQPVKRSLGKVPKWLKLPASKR

[4] = biological target: T4, C-terminal fragment of ASPSCR1 (residues 280–553) (human, UniProt Q9BZE9 280-553)
T4 construct: ASPSCR1/UBXD9, human, residues 280-553; also called C-terminal half of ASPSCR1; source: E. coli One Shot BL21 Star (DE3), purified (Ni-NTA Agarose)
T4 sequence (looked up): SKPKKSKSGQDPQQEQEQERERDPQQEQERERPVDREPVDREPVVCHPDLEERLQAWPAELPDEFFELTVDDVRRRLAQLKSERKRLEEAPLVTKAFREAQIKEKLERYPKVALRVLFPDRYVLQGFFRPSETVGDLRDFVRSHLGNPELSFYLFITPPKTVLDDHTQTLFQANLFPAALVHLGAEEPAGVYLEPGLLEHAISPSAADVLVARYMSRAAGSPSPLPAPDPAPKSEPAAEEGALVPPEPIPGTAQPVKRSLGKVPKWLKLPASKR

[5] = biological target: T5, VCP-His R155H (human, UniProt P55072 1-806, R155H)
T5 construct: VCP/p97, human, with the IBMPFD- and ALS-linked substitution R155H; also called VCP mutant R155H; source: E. coli One Shot BL21 Star (DE3), purified (Ni-NTA Agarose)
T5 sequence (P55072 whole entry R155H): as the sequence (P55072 whole entry R191Q) above, with R155H, Q191R counted along it

[6] = biological target: T6, VCP-His (human, UniProt P55072 1-806)
T6 construct: VCP/p97, human; also called His-tagged VCP; wild-type VCP-His; source: E. coli One Shot BL21 Star (DE3), purified (Ni-NTA Agarose)
T6 sequence (P55072 whole entry): as the sequence (P55072 whole entry R191Q) above, with Q191R counted along it

binding result [1]: binds
binding result [2]: binds
binding result [3]: binds
binding result [4]: binds
binding result [5]: binds
binding result [6]: binds
B1: GST-METTL21D (enzyme, human, UniProt Q9H867 1-229, looked up)
chain: MADTLESSLEDPLRSFVRVLEKRDGTVLRLQQYSSGGVGCVVWDAAIVLSKYLETPEFSGDGAHALSRRSVLELGSGTGAVGLMAATLGADVVVTDLEELQDLLKMNINMNKHLVTGSVQAKVLKWGEEIEGFPSPPDFILMADCIYYEESLEPLLKTLKDISGFETCIICCYEQRTMGKNPEIEKKYFELLQLDFDFEKIPLEKHDEEYRSEDIHIIYIRKKKSKFPS
notes: METTL21D, human; also called GST-tagged METTL21D; wild type METTL21D; source: E. coli One Shot BL21 Star (DE3), purified (Glutathione Sepharose 4B)

Reference: paper PMC3547847, “A Newly Uncovered Group of Distantly Related Lysine Methyltransferases Preferentially Interact with Molecular Chaperones to Regulate Their Activity” (PLoS Genetics, 2013)
